Experimental data published in paper PMC10899256.

Target: TBC1D23 co-precipitated with GFP-tagged LKB1 (Fig. 8a) (UniProt Q9NUY8)
Assay: co-immunoprecipitation (GFP beads) from HEK293T cells, densitometry
Settings: parent: est. 1.0; read off a plot

TBC1D23 co-precipitated with GFP-tagged LKB1 (Fig. 8a), sequence (Q9NUY8 whole entry): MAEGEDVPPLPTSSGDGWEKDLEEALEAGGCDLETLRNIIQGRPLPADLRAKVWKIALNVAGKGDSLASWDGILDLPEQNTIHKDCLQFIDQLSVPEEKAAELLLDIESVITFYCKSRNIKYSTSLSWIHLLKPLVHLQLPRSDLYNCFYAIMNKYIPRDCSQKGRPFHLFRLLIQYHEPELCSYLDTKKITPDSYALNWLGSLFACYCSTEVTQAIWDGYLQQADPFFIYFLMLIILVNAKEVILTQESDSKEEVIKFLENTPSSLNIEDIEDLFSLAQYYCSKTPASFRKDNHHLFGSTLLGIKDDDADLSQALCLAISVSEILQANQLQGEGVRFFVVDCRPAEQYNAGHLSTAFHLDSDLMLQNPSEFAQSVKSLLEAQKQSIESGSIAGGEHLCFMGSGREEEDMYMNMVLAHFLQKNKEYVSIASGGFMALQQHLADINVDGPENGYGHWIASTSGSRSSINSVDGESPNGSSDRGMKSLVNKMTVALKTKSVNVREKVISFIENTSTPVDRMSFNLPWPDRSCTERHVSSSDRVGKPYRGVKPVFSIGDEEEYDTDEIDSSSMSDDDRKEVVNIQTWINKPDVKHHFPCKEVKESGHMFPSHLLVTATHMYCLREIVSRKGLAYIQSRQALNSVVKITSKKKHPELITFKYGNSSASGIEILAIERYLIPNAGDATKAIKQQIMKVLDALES

Substance	ratio to parent
GFP-LKB1 CRD F354A	0.75
GFP-LKB1 CRD F354L	0.82
